This data set in a line: yeast display, Sf9 membrane polyspecificity reagent, FACS + sequencing; frameworks hold sequencing errors. In short, it runs like this: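 A synthetic nanobody library was expressed on Saccharomyces cerevisiae BJ5465 by galactose induction for 36–48 hours. The library was stained for 1 hour at 4 °C with 10% biotinylated, detergent-solubilized Sf9 membrane reagent and enriched with streptavidin microbeads before FACS. Low and high (top ~1%) gates were set on anti-HA fluorescence for expression and streptavidin fluorescence for reagent binding, and each polyreactivity label reflects the gate of origin.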
For the sequence “QVKLVESGGGLVQAGGSLRLSCAASGSTYHSNAMGWYRRAHGKEMEFVASISIGGSTNYADSVKGRYTISRDNAKNTVYLQMNSLKAEDTAVYYSATEPNPRRPRVDYDYWGQGTQVTVSS”, the “polyreactivity (PSR sort gate)” value was “low polyreactivity”.

As to “QVKLVESGGGLVQAGGSLRLSCCASGSTFSPNTMGRYRQAPGKDREVVAAITYRGANTYYADSVKGRFTISRDNAKLTVYLQMNSLKPEDTAVYYCSAVYAYHHVGFGYWGQGTQVTVSS”, the “polyreactivity (PSR sort gate)” value is reported as “low polyreactivity”.

On to “QVKLVESGGGLVQAGGSLRLSCDASGSTFIANTMGWYRQAPGKERELVAAITDSGGSTYYADSVKGRFTISRDNAKNTVYLQMNSLKPEDTAVYYCNADYVYVFIRAWSYDYWGQGTQVTVSS”, for which the “polyreactivity (PSR sort gate)” value is “low polyreactivity”.

With “QVKLVESGGGLVQAGGSLRLSCPASGSTFYYNAMGWYRQAPGKERELVARISRSGGSTYADSVKGRFTISRDNAKNTVYLQMNSLKPEDTAVYYCNADAYGTPEFTSYAVRYDYWGQGTQVTVSS”, the “polyreactivity (PSR sort gate)” value is reported as “low polyreactivity”.

As for “QVKLVESGGGLVQAGGSLRLSCSASGLTLSGNAMGWYRQAPGKERELVAAITGRGGSTTYADSVKGRFTISRDNAKNTVYLQMNSLKPEDTAVYYCPATRYSWHNRGSRRHRYDYWGQGTQVTVSS”, the “polyreactivity (PSR sort gate)” value is reported as “low polyreactivity”.

Turning to “QVKLVESGGGLVQAGGSLRLSFAASGFTCNANAMGWYRQAPGQERELVAAISLSGGRTYYADSVKGRFTISRDNAKNTVYLQMNSLKAEDTAVYYCAASPDGSFRRFSRVVSGDYWGQGTQVTVSS”, the “polyreactivity (PSR sort gate)” value is reported as “high polyreactivity”.

Take “QVKLVESGGGLVQAGGSLRLSLQPPDSPSTTMLWDGIDRRLAKKGSWLPVFLPSGGTTYADSVKGRFTISRDNAKYTVYLQMNSLKPEDTAVYYCNADLSDVAVTDHDYWGQVTQVTVSS”: the “polyreactivity (PSR sort gate)” value is recorded as “low polyreactivity”.

Consider “QVKLVESGGGLVQAGGSLRLSWAASGSILNRYAMGWYRQAPGKERELVAAITGSSGSTYYADSVKGRFTISRDNAKNTVYLQMNSLKPEDTAVYYCATAFRNGRGSYYYWGQGTQVTVSS”, for which the “polyreactivity (PSR sort gate)” value is recorded as “high polyreactivity”.

“QVKLVESGGGLVQAGGSLRLTCAASGSTLYAYAMGRYRQAPGKERELVAAISSRAVRTYYADSVKGRFTISRDNAKNTVYLQINSLKPEDTAVYYCAARGQAYSGDRMYYWGQGTQVTVSS”: the “polyreactivity (PSR sort gate)” value was “high polyreactivity”.

With “QVKLVESGGGLVQAGGTLPITCAASGRTFARYAMVWYRQAPGKERELVSAITGRSGTNTYYADSVKGRFTISRDNAKNTVYLQMNSLKPEDTAVYYCAADLQGYYFRGRWTSYDYWGQGTQVTVSS”, the “polyreactivity (PSR sort gate)” value is on record as “high polyreactivity”.

“QVKLVESGGRLVQAGGILRLSSPASGFIFRGYARGWYRQAPGKERELVAAINSGGSTNYADSVKGRFTISRDNAKNTVYLQMIRLKPEETAVYYCAARVKTSYRYLRTYNYWGLGTQVTVSS”: the “polyreactivity (PSR sort gate)” value is recorded as “high polyreactivity”.

Turning to “QVKLVESVGALVQAGGSHRLSCAASGNTFPWYVLGWYRHATGKERELLAAITSSGSTTYYADSVKGRFTISRDNAKNTVYLQMNSLKPDDNAVYYCAARNYGPYDYWGPGTQVTVSS”, the “polyreactivity (PSR sort gate)” value was “low polyreactivity”.

In the case of “QVKLVYSGGGLVQAGGSLRLSCAASVSIFYYYGMGWYRQAPVKERQLVAAITYRGTRTYYADSGKGRFTFSRDNAKTTVYLQMYSLKAEDTALYYCAAERRIYSSDSWGQGTQVTVSS”, the “polyreactivity (PSR sort gate)” value is “high polyreactivity”.

Consider “QVKRVESGGGLVQAGGSLRLSCAASGSTFYRYAMGWYRQAPGKERELVAAINGRGGRTYYADSVKGRFTISRDNAKNTVYLQMNSLKPEDTAVYYCAARGYAPDTYGYWGQGTQVTVSS”, for which the “polyreactivity (PSR sort gate)” value is “high polyreactivity”.

In the case of “QVLLQESGAGLVQAGGSLRLSCAASGTISTDIRMGWYRLAPGKEREFVASIDGCSTTYYADSVKGRFTISRDNAKNSVYLQLNSLKPEDTAMYYCAAREDTEFYLYYWGQGNQVTVSS”, the “polyreactivity (PSR sort gate)” value was “low polyreactivity”.

For the sequence “QVLLQESGGGLVQAGGSLRLSCAASGTISTDIRMGWYRLAPGKEPEFVASIDGCSTTYYADSVKVRFTISRDNAKNTVYLQMNSVIPEDSAMYYCAAREATEFYLYYWGQGTQVTVSS”, the “polyreactivity (PSR sort gate)” value was “low polyreactivity”.

“QVLLQESGGGLVQAGVSLRLCCAASGYISGDQFMGWYRQAPGKEREFVAGIGNGTNTNYADSVKGRFTTSRDNAKNTVYLQMNSLKQEDTAVYYCAADPSDGSTLAYWGHGTQVTVSS”: the “polyreactivity (PSR sort gate)” value was “high polyreactivity”.

For the sequence “QVLLQESGGGLVQAGVSLRLSCAASGNIFSAGGMGWYRQAPVNERELVAGIGTGTSTNYADSVKGRFTISRDNAKNTVYLQMNSLKPEDTAVYYCAAAYYSGLSHWYWGQGTQVTVSS”, the “polyreactivity (PSR sort gate)” value is on record as “low polyreactivity”.

In the case of “QVLLQESGGLVQAGCSLRMSCAESGSISTALSMGWYRQAPGKERELVATISDGASTNYADSVKGRFTISRVNAKNTLYLQMNSLKPEDTEVYYCAAQSQYRPDHRYWGQGTKVTVSS”, the “polyreactivity (PSR sort gate)” value is on record as “high polyreactivity”.

Take “QVLLVESGGGLVHAGGSLRVSCASSGFTFKENAMGWYRQAPGKERELVAAISSTGGSTYYADSVKGRFTISRDNAKNTVFLLMNSLKPEDTAVYYCAASTYWYDGDYWGQGTQVTVSS”: the “polyreactivity (PSR sort gate)” value is reported as “high polyreactivity”.

On to “QVLLVESGGGLVQAGGSLRLSCAASGIIFYRNAMGWYRQAPGKERELVAVITASGGHTYYADSVKGRFTISRDNAKNTVYLQMNSLKPEDTAVYYCNRELTSPRRWHVSRADDYWGQGTQVTVSS”, for which the “polyreactivity (PSR sort gate)” value is on record as “low polyreactivity”.

For the sequence “QVLLVESGGGLVQAGGSLRLSCAASGISIRAKAMGGYRQAPGKVRELVAAITWSGGDPYYADSVKGRFTISRDNAKNTVYLQMNSLKPEDTAVYYCNALQPGLGSPLGEYDYWGQGTQVTVSS”, the “polyreactivity (PSR sort gate)” value was “low polyreactivity”.

With “QVLLVESGGGLVQAGGSLRLSCAASGITFGRNTMGWYRQAPGKDRELVAAIDSGGNTYADSVKGRFTISRDNAKNTVSLQMNSRKPEDTAVDYCAVDGGEFSSYGYWGQGTQVTVSS”, the “polyreactivity (PSR sort gate)” value was “low polyreactivity”.

For “QVLLVESGGGLVQAGGSLRLSCAASGLTFVYVMGWYRQAPGKERELVAGISYSAGRTYYADSVKGRFTISRDNAKNTVYLQMNSLKPEDTAVYYCAATKRGRPQRGYWGQGTQVTVSS”, the “polyreactivity (PSR sort gate)” value was “high polyreactivity”.

Turning to “QVLLVESGGGLVQAGGSLRLSCAASGYNFFTKAMGWYRQAQGKERELVAAISKSGGRTYYADSVKGRFTISRDNAKNTVYLQMNSLTPEDTAVYYCAARSETSYYPSRYDYWGQGTQVTVSS”, the “polyreactivity (PSR sort gate)” value is “high polyreactivity”.

With “QVLLVESGGGLVQAGGSLRLSCAAWSIFYLNAMGWYRQAPGKERELVAAISSAGSTYYADSVKVRFTISRDNAKNTVYLQMNSLKPEDTAVYYCAAYWYDSPGVTEIWYDYWGQGTQVTVSS”, the “polyreactivity (PSR sort gate)” value is “low polyreactivity”.

With “QVLLVESGGGLVQAGGSLRLSCAAYGRTFYGYAMGWYRQAPGKERELVATISSGDSTNYADSVKGRFTISRDNAKNTVYLQMNSLKPEDTAVYYCAAQGGDGVLALYYYWGQGTQVTVSS”, the “polyreactivity (PSR sort gate)” value is recorded as “low polyreactivity”.

With “QVLLVESGGGLVQAGGSLRLSSAASGSIFNRYAMGWYRQAPGKDSEFVAAITYSGGSTYYADSVKGRFTISRDNAKNNVYLQMIRVKPEDTAVYYCAKAYYPKGRYGFDYWGQGTQVTVSS”, the “polyreactivity (PSR sort gate)” value was “high polyreactivity”.

For “QVLLVESGGGLVQAGGSVRLICAASGSIFKKYALGWYRPATGEERELVAAISWRGGRTYYADSVTGRFTISRDNAKNTVFLQMNSLKPEDTAVYYCAKERYVSYRGGPWVDYWGQGTQVTVSS”, the “polyreactivity (PSR sort gate)” value is recorded as “high polyreactivity”.

As for “QVLLVESRGALVQAGGSLRLSCAASGSTFYWYAMGRYRQAPGKERELVASITRSGVRTYYADSVKGRFTISRDNGKNTVYLQMNSLKPEDTAVYYCAAERYYFPRSFRYGYWGQGTQVTVSS”, the “polyreactivity (PSR sort gate)” value is listed as “low polyreactivity”.

As to “QVLLVESRGGLVQAGGSLRLSCAASGSIFFYYAMGWYRQAPGKETELVASISWSGGSTYYADSVKGRFTISRDNAKNTVYLQMNSLKPEDTAVYFCAKVTITFSWETLYDYWGQGTQVTVSS”, the “polyreactivity (PSR sort gate)” value is “low polyreactivity”.

As to “QVNLVESGGGLVQAGGSLRLSCAAYGRTFRTNAMRCNRQEPGKERELFAAITYSGDSTYYADSVKGRFTISRDNEKNTVYLQMNSLKPEDTAVYYCNARLLSGPGYDYWRQGTQVTVSS”, the “polyreactivity (PSR sort gate)” value is “low polyreactivity”.

Turning to “QVPLVDSGGGLVQAGGSVRLSCAASGSIFYVYALGWYRQAPGTERELVAAINPSGGSTYADSVKGRFTISRDNAKISVYLQMYSLKTEDNAVSYCAAEPEWWWRGYGYWGQGKQVTVSS”, the “polyreactivity (PSR sort gate)” value is “low polyreactivity”.

On to “QVPLVEAGGGLVQAGGSLRVSCAASGITFQLYGMGWYSQAPGKERELVAAITGSDGITYYADSVKGRFTISLDNAKNTVYLPMNSLKPEDTAVYYCAAEWWDYWNEYDYWGQGTQVTVSS”, for which the “polyreactivity (PSR sort gate)” value was “high polyreactivity”.

For the sequence “QVPLVESGGGLVQAGGILRISCAATGSSFRFKAMGWYRQAPGQERELVAAISRRGSSTYYADSVKGRCTISRDNAKNRVYLQMNSLKAEDTAVYYCAASGGYRPHRYQIGDYDNWGQGTQVTLSS”, the “polyreactivity (PSR sort gate)” value is reported as “high polyreactivity”.

Consider “QVPLVESGGGLVQAGGSLRISCAASFRYNTMGWYRQAPGKERELVAAISGSGSRTYYADSVKGRFTISRDNAKITVYLQMNSLKPEDTAVFYCAALSYRNSEVGTSRGDYWGQGTQVTVSS”, for which the “polyreactivity (PSR sort gate)” value is reported as “high polyreactivity”.

Take “QVPLVESGGGLVQAGGSLRLSCAASGGIFGRYAMGWYRQAPGKERELVAALSARGGSSYYADSVKGRFTISRDNAKNTVYFQMNSLKPEDTAVYYCNALWVSYYTFRMDYWGQGTQVTVSS”: the “polyreactivity (PSR sort gate)” value is “high polyreactivity”.

For “QVPLVESGGGLVQAGGSLRLSCAASGITIRGYAMGWYRQAPGKDRELVAAINTRTSTYYADSVKGRFTISRDNAKHTVYLQMNSLKPEDTAVYYCNRDPVYYDYDYWGQGTQVTVSS”, the “polyreactivity (PSR sort gate)” value was “low polyreactivity”.

For “QVPLVESGGGLVQAGGSLRLSCAASGRIFKSNAMGWYRQAPGKERELVAAISYSGGSTYYADSVKGRFTISRDNAKKTVYLQMNRLKPEDTAVYYCNKYFRREYDYWGQGTQVTVSS”, the “polyreactivity (PSR sort gate)” value is “high polyreactivity”.

Regarding “QVPLVESGGGLVQAGGSLRLSCAASGRSFTSNAMGWYRQAPGKEREFVAAITIRGGSTYYADSVKGRFTISRDNATNTVYLQMHSLKPEDTALYYCAVGRRKTWGDYWGQGTQVTVSS”, the “polyreactivity (PSR sort gate)” value was “high polyreactivity”.

In the case of “QVPLVESGGGLVQAGGSLRLSCAASGSIFNIYALGWYRPAPGKVWELVAGISWDSGSTFYADSVKGRVTISRDNAKNTVYLQMNSLKPEDTAGYYCNVVYETYCDEFDYWGQGTQVTVSS”, the “polyreactivity (PSR sort gate)” value is “high polyreactivity”.

Source of the values: the nanobody polyreactivity screen of Harvey et al. (2022).
